From paper PMC4930482
Values belong to the substance of their own block, whether it stands above or below them.

Legend:
Test in all cases: coIP
RFP-RNF26 = RFP-RNF26 (UniProt Q9BY78); conditions: n = 3; parent: est. 100; read off a plot
HA-RNF26 = HA-RNF26 (UniProt Q9BY78); conditions: n = 3; parent: est. 100; read off a plot
[1] = target: RNF26, wild type (coIP of Figures 5A and 5B) (UniProt Q9BY78); conditions: HEK293T cells; n = 3; parent: est. 100; read off a plot

- percent of parent (RFP-RNF26): 14 % Co-IP
Substance: FLAG-EPS15 (from UniProt P42566) UIM*

- percent of parent (HA-RNF26): 39 % Co-IP
Substance: GFP-TAX1BP1 (from UniProt Q86VP1) UBZ2*

- percent of parent [1]: 13 % Co-IP
Substance: TOLLIP, wild type (coIP of Figure 5B) (from UniProt Q9H0E2) CUE*
